Source: patent US20170342107A1 (REGENTS OF THE UNIVERSITY OF MINNESOTA, published 2017)
Read-outs that look alike come from different tables or passages of the source. Square brackets hold non-standard residues; d marks the D form. * marks the point of attachment. Phe(4-I) = N[C@@H](Cc1ccc(I)cc1)C(=O)O; dPhe(4-I) = N[C@H](Cc1ccc(I)cc1)C(=O)O; d2Nal = N[C@H](Cc1ccc2ccccc2c1)C(=O)O; Bta = N[C@@H](Cc1csc2ccccc12)C(=O)O; Tic = O=C(O)[C@@H]1Cc2ccccc2CN1; dTic = O=C(O)[C@H]1Cc2ccccc2CN1; For = O=C*

What was measured:
[1] = target: T1, mouse melanocortin-3 receptor (mouse, UniProt P33033 1-323); assay: cell-based or functional assay
T1 sequence (P33033 whole entry): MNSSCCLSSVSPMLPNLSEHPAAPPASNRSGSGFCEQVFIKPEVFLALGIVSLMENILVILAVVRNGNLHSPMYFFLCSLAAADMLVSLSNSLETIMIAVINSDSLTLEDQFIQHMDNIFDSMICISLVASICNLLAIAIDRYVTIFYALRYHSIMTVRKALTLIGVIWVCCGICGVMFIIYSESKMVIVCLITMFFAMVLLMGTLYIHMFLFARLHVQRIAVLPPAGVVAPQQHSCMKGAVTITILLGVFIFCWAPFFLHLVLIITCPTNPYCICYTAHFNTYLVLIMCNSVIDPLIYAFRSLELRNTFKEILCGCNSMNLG

[2] = target: T2, mouse melanocortin-4 receptor (mouse, UniProt P56450 1-332); assay: cell-based or functional assay
T2 sequence (P56450 whole entry): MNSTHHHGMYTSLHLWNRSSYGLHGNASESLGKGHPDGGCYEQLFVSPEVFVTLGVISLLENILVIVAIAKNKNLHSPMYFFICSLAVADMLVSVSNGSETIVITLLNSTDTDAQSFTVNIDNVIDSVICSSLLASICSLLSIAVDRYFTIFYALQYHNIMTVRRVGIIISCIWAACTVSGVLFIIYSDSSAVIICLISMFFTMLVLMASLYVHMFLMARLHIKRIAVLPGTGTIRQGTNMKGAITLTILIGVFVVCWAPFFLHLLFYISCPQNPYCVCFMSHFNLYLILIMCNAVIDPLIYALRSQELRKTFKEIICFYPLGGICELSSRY

[3] = target: T3, mouse melanocortin-1 receptor (mouse, UniProt Q01727 1-315); assay: cell-based or functional assay
T3 sequence (Q01727 whole entry): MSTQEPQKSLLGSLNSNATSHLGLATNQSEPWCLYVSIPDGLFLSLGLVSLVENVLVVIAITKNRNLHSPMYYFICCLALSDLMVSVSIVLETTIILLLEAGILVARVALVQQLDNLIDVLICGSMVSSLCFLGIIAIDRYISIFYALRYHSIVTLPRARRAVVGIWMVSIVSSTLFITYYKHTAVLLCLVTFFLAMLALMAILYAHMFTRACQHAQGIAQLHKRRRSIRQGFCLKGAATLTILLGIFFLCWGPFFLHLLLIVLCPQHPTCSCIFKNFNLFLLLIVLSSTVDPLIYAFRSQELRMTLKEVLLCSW

[4] = target: T4, mouse melanocortin-5 receptor (mouse, UniProt P41149 1-325); assay: cell-based or functional assay
T4 sequence (P41149 whole entry): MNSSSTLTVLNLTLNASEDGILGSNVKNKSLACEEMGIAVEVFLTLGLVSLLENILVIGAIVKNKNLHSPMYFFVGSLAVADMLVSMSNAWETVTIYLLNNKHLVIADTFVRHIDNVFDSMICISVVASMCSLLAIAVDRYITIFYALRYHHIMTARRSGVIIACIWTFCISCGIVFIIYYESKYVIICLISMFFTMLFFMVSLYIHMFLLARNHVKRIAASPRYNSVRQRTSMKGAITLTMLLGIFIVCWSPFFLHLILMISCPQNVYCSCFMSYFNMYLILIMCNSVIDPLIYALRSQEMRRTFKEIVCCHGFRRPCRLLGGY

[5] = target: T4, mouse melanocortin-5 receptor; assay: cell-based or functional assay; remark: listed apart in the source
[6] = target: T2, mouse melanocortin-4 receptor; assay: cell-based or functional assay; remark: listed apart in the source
[7] = target: T2, mouse melanocortin-4 receptor; assay: cell-based or functional assay; remark: listed apart in the source
[8] = target: T1, mouse melanocortin-3 receptor; assay: cell-based or functional assay; remark: listed apart in the source
[9] = target: T1, mouse melanocortin-3 receptor; assay: cell-based or functional assay; remark: listed apart in the source
[10] = target: T3, mouse melanocortin-1 receptor; assay: cell-based or functional assay; remark: listed apart in the source
[11] = target: T4, mouse melanocortin-5 receptor; assay: cell-based or functional assay; remark: listed apart in the source
[12] = target: T1, mouse melanocortin-3 receptor; assay: 125I-NDP-MSH competitive displacement, HEK293 cells stably expressing mMC3R; negative = more potent than control
Text: (§1) A typical experiment utilized a 12-well format.

[13] = target: T2, mouse melanocortin-4 receptor; assay: 125I-NDP-MSH competitive displacement, HEK293 cells stably expressing mMC4R; negative = more potent than control
Text: as §1

[14] = target: T1, mouse melanocortin-3 receptor; assay: 125I-NDP-MSH competitive displacement, HEK293 cells stably expressing mMC3R
Text: as §1

B1: SKY4-48-45, Ac-3Bal-Arg-(pI)DPhe-DNal(2')-NH2 (peptide)
peptide: Ac-[Bta]R[dPhe(4-I)][d2Nal]-NH2
Agonist, % of NDP-MSH maximal response [1]: 34 % @ 100 µM
Agonist, % of NDP-MSH maximal response [2]: 38 % @ 100 µM
Agonist, % of NDP-MSH maximal response [3]: 36 % @ 100 µM
Agonist, % of NDP-MSH maximal response [4]: 41 % @ 100 µM

B2: SKY5-121, Ac-DTrp-DArg-Phe-DHis-NH2 (peptide)
peptide: Ac-[dW][dR]F[dH]-NH2
SMILES: CC(=O)N[C@H](Cc1c[nH]c2ccccc12)C(=O)N[C@H](CCCNC(=N)N)C(=O)N[C@@H](Cc1ccccc1)C(=O)N[C@H](Cc1c[nH]cn1)C(N)=O
Agonist, % of NDP-MSH maximal response [5]: 29 % @ 100 µM

B3: SKY5-146-7, Ac-His-Arg-(pI)DPhe-Trp-NH2 (peptide)
peptide: Ac-HR[dPhe(4-I)]W-NH2
SMILES: CC(=O)N[C@@H](Cc1c[nH]cn1)C(=O)N[C@@H](CCCNC(=N)N)C(=O)N[C@H](Cc1ccc(I)cc1)C(=O)N[C@@H](Cc1c[nH]c2ccccc12)C(N)=O
Agonist, % of NDP-MSH maximal response [6]: 29 % @ 100 µM
pA2 (antagonist) [6]: 6 pA2

B4: SKY5-142-A, For-DPhe-(pI)Phe-DArg-DHis-NH2 (peptide)
peptide: For-[dF][Phe(4-I)][dR][dH]-NH2
SMILES: N=C(N)NCCC[C@@H](NC(=O)[C@H](Cc1ccc(I)cc1)NC(=O)[C@@H](Cc1ccccc1)NC=O)C(=O)N[C@H](Cc1c[nH]cn1)C(N)=O
Antagonist Ki [7]: > 3.1 µM
pA2 (antagonist) [8]: 6.7 pA2
Agonist, % of NDP-MSH maximal response [6]: 47 % @ 100 µM

B5: SKY5-148, For-DTic-(pI)Phe-DArg-DHis-NH2 (peptide)
peptide: For-[dTic][Phe(4-I)][dR][dH]-NH2
SMILES: N=C(N)NCCC[C@@H](NC(=O)[C@H](Cc1ccc(I)cc1)NC(=O)[C@H]1Cc2ccccc2CN1C=O)C(=O)N[C@H](Cc1c[nH]cn1)C(N)=O
Antagonist Ki [7]: > 3.1 µM
pA2 (antagonist) [8]: 6.8 pA2
Agonist, % of NDP-MSH maximal response [6]: 71 % @ 100 µM
pA2 (antagonist) [6]: 5.4 pA2

B6: SKY2-125-5, (Arg7, Phe8) α-MSH, Ac-Ser-Tyr-Ser-Met-Glu-His-Arg-Phe-Trp-Gly-Lys-Pro-Val-NH2 (peptide)
peptide: Ac-SYSMEHRFWGKPV-NH2
fold decreased agonist potency against α-MSH [9]: 45000 fold

B7: SKY6-24-2, Ac-His-Arg-(pI)DPhe-Tic-NH2 (peptide)
peptide: Ac-HR[dPhe(4-I)][Tic]-NH2
fold increase in agonist potency against SKY5-146-7 [10]: 380 fold
fold increase in agonist potency against SKY5-146-7 [11]: 40 fold

B8: SKY4-48-10, Ac-Arg-Arg-(pI)DPhe-3Bal-NH2 (peptide)
peptide: Ac-RR[dPhe(4-I)][Bta]-NH2
Agonist, % of NDP-MSH maximal response [2]: 24 % @ 100 µM
Fold Diff. (IC50 against SKY4-48-1) [12]: -52 fold
Fold Diff. (IC50 against SKY4-48-1) [13]: 1 fold

B9: SKY4-48-11, Ac-His-Arg-(pI)DPhe-3Bal-NH2 (peptide)
peptide: Ac-HR[dPhe(4-I)][Bta]-NH2
Agonist, % of NDP-MSH maximal response [2]: 47 % @ 100 µM
Fold Diff. (IC50 against SKY4-48-1) [12]: -15 fold
Fold Diff. (IC50 against SKY4-48-1) [13]: 2 fold

B10: SKY4-48-15, Ac-Phe-Arg-(pI)DPhe-3Bal-NH2 (peptide)
peptide: Ac-FR[dPhe(4-I)][Bta]-NH2
IC50 [14]: 5.35 µM
Fold Diff. (IC50 against SKY4-48-1) [12]: -9 fold
Fold Diff. (IC50 against SKY4-48-1) [13]: 7 fold

B11: SKY4-48-26, Ac-Arg-Arg-(pI)DPhe-Phe-NH2 (peptide)
peptide: Ac-RR[dPhe(4-I)]F-NH2
SMILES: CC(=O)N[C@@H](CCCNC(=N)N)C(=O)N[C@@H](CCCNC(=N)N)C(=O)N[C@H](Cc1ccc(I)cc1)C(=O)N[C@@H](Cc1ccccc1)C(N)=O
Fold Diff. (IC50 against SKY4-48-1) [12]: -8 fold
Fold Diff. (IC50 against SKY4-48-1) [13]: 4 fold
